US20190194313A1 (JOINT STOCK COMPANY BIOCAD, published 2019)

What was measured:
Mouse sIL6R = target: T1, Mouse sIL6R (mouse, UniProt P22272 20-364); assay: BLI, Octet Red 96, BCD89 immobilised on AR2G sensors; Table 2 prints '-' for KD
T1 construct: extracellular domain; also called mouse receptor; mouse IL-6R
T1 sequence (looked up): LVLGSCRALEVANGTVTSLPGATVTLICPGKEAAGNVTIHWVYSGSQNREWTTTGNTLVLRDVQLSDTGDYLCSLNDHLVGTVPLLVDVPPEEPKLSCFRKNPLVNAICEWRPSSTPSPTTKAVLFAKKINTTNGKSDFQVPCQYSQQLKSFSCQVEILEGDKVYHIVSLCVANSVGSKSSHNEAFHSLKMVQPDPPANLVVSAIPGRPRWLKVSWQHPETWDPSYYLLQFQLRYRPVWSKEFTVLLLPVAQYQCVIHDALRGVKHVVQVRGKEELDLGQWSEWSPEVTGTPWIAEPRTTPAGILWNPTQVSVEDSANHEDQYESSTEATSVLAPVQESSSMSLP
Description: (§1) The interaction of the selected anti-IL6R with interleukin-6 receptors of cynomolgus, guinea pig, dog and mouse was examined with ELISA (FIG. 11, 12). The binding affinity constants of BCD89 antibody to IL-6sR alpha subunit of a human, cynomolgus, guinea pig, dog and mouse were obtained with Octet Red 96 (by ForteBio). BCD89 was nonspecifically immobilized onto the surface of amino reactive sensors of the second generation (AR2G) using standard protocol according to manufacturer's instruction for preparation and immobilization of AR2G sensors. Analysis was conducted at 30° C. using PBS comprising 0.1% Tween-20 and 0.1% BSA as a working buffer. Titration of IL-6R of a human, cynomolgus, guinea pig, dog, rabbit and mouse was performed using a running buffer from concentration of 126 nM to 2 nM, spacing 2.
(§2) Binding curves, after subtracting a reference signal, were analyzed using Octet Data Analysis software (Version 7.0) in accordance with the standard procedure and using 1:1 interaction model.

[1] = target: T2, Human sIL6R (recombinant IL-6sR alpha subunit of a human, Example 13) (human, UniProt P08887 20-365); assay: BLI, Octet Red 96, BCD89 immobilised on AR2G sensors, receptor titrated from 126 nM to 2 nM, 1:1 model
T2 construct: extracellular domain; also called recombinant IL-6R of a human; human IL-6R alpha subunit
T2 sequence (looked up): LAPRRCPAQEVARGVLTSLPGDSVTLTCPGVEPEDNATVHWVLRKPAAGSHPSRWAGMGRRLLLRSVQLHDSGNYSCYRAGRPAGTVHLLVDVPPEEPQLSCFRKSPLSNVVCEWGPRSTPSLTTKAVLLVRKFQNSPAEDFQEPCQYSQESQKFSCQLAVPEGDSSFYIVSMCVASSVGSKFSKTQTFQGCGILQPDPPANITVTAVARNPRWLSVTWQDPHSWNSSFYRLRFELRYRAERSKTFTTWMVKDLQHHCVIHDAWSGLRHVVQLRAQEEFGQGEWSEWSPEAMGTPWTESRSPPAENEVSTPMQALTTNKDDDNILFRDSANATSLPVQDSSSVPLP
Description: as §1, §2

Guinea Pig sIL6R = target: T3, Guinea Pig sIL6R (guinea pig); assay: as above
T3 construct: extracellular domain; also called guinea pig IL-6R; guinea pig IL-6R alpha subunit
Description: as §1, §2

Cynomolgus sIL6R = target: T4, Cynomolgus sIL6R (cynomolgus, UniProt A0A2K5WN54 60-396); assay: as above
T4 construct: extracellular domain; also called IL-6sR of a cynomolgus; cynomolgus IL-6R alpha subunit
T4 sequence: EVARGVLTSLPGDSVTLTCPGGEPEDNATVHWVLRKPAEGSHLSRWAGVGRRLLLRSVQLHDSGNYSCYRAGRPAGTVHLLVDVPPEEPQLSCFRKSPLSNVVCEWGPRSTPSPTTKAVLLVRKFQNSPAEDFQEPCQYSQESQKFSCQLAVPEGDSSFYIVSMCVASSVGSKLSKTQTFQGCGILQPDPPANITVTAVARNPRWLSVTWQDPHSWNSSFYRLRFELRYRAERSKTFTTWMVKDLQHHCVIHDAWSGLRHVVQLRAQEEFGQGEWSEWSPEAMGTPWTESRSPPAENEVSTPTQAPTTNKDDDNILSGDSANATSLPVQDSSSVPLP
Description: as §1, §2

B1: BCD089 antibody (anti-IL-6sR) (antibody, IgG1, V domains shown)
VH: QVQLVQSGGGLVQPGGSLRLSCAASGFTFSSYYMSWVRQAPGKGLEWVSGIYSDGTTHYGDSVKGRFTISRDNAKNTVYLQLNSLRAEDTAMYYCAKGAGPTWWYALDAWGQGTLVTVSS
VL: DIQLTQSPSSVSVSVGERVTIDCKSSQSVLSASNTYLNWYQQKPGQAPQLLIYYASTRESGVPDRFSGSGSGTDFTLTISSLQAEDAAVYYCQQAYRAPVTFGQGTKLEIKR
notes: None of these passages names BCD089; also called BCD89; BCD-BCD-089 IgG1
With B1 the binding result (Mouse sIL6R) was “no binding”, the Kd [1] was 0.663 nM and the Kd (Guinea Pig sIL6R) was 306 nM. It also gave a Kd (Cynomolgus sIL6R) of 2.4 nM.
